Source: patent US20180193452A1

Molecular target: wild type CAR (WT CAR): human FcεRIα extracellular domain fused to CD3ζ (human)
Sequence (chain, as listed by the source): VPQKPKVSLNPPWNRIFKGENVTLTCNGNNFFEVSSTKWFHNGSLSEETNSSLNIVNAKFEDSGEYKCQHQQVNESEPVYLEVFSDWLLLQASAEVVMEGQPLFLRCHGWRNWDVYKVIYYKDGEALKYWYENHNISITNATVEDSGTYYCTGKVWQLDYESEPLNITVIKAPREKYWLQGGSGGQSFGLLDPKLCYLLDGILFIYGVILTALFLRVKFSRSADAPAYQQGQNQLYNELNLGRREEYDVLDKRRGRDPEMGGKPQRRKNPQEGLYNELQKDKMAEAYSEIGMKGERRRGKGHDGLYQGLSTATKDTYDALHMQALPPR
Assay: cell-based or functional assay

Sequence of purified human IgE (Abcam) (P01854 other isoform, or with tags, fused parts or gaps): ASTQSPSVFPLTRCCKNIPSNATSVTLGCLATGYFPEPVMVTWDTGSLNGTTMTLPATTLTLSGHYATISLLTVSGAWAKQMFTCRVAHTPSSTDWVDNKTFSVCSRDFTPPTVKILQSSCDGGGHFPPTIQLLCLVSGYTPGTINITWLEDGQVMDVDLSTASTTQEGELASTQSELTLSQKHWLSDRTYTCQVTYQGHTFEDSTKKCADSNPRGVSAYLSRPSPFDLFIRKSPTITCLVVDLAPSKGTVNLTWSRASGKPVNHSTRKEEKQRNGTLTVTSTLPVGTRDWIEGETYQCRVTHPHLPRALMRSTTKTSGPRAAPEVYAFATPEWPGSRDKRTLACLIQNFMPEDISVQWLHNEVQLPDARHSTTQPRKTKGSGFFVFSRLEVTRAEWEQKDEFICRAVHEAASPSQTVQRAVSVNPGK

suppression of CD69 up-regulation by U266 cells, free IgE at 1.7 µg/ml: > 2 fold
suppression of CD69 up-regulation by U266 cells, free IgE at 10 µg/ml: > 4 fold
Substance: purified human IgE (Abcam) (from UniProt P01854 1-428) (antibody)
